The source of these data is the supplement of paper PMC5998384.

Data set [1] relates to HeLa Kyoto. Briefly: solubility in G1/S (NP-40 vs SDS abundance) (log2 ratio); higher = more soluble. The note with it: cell cycle stage: G1/S.
The test system of data set [2] is HeLa Kyoto. Briefly: melting temperature (median over replicates), in situ; higher = more thermally stable.
Data set [3] relates to HeLa Kyoto. Briefly: solubility change mitosis vs G1/S (difference of NP-40 vs SDS log2 ratios) (log2 ratio difference); higher = more soluble in mitosis.
Data set [4] has as its system HeLa Kyoto. In words: thermal stability score vs G1/S (z-score of summed log2 fold changes over temperatures); higher = more thermally stable than in G1/S.
The mark [5] stands for this setting: cell cycle stage: early G1 (4.5 h after nocodazole release).
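For melting temperature (median over replicates), in situ in this document: HeLa Kyoto cells synchronized by double thymidine or nocodazole block, proteins quantified by TMT10plex mass spectrometry, three independent biological replicates.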
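For solubility change mitosis vs G1/S (difference of NP-40 vs SDS log2 ratios) in this document: synchronized HeLa Kyoto cells (double thymidine block for G1/S, nocodazole release for mitosis), protein amounts in NP-40 versus SDS lysates quantified by mass spectrometry, three biological replicates.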
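For solubility in G1/S (NP-40 vs SDS abundance) in this document: HeLa Kyoto cells arrested at G1/S by double thymidine block, proteins quantified by TMT10plex mass spectrometry in mild NP-40 versus SDS extracts, three biological replicates.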
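For thermal stability score vs G1/S (z-score of summed log2 fold changes over temperatures) in this document: synchronized HeLa Kyoto cells, proteins quantified by TMT10plex mass spectrometry, three biological replicates, mitosis taken 0.5 h after nocodazole release, G1/S directly after double thymidine block.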

For the sequence “MAAAMPLALLVLLLLGPGGWCLAEPPRDSLREELVITPLPSGDVAATFQFRTRWDSELQREGVSHYRLFPKALGQLISKYSLRELHLSFTQGFWRTRYWGPPFLQAPSGAELWVWFQDTVTDVDKSWKELSNVLSGIFCASLNFIDSTNTVTPTASFKPLGLANDTDHYFLRYAVLPREVVCTENLTPWKKLLPCSSKAGLSVLLKADRLFHTSYHSQAVHIRPVCRNARCTSISWELRQTLSVVFDAFITGQGKKDWSLFRMFSRTLTEPCPLASESRVYVDITTYNQDNETLEVHPPPTTTYQDVILGTRKTYAIYDLLDTAMINNSRNLNIQLKWKRPPENEAPPVPFLHAQRYVSGYGLQKGELSTLLYNTHPYRAFPVLLLDTVPWYLRLYVHTLTITSKGKENKPSYIHYQPAQDRLQPHLLEMLIQLPANSVTKVSIQFERALLKWTEYTPDPNHGFYVSPSVLSALVPSMVAAKPVDWEESPLFNSLFPVSDGSNYFVRLYTEPLLVNLPTPDFSMPYNVICLTCTVVAVCYGSFYNLLTRTFHIEEPRTGGLAKRLANLIRRARGVPPL [PIGT]”, the “solubility in G1/S (log2)” value in the data set on HeLa Kyoto [1] was determined as 0.0123. Further, the melting temperature was determined as 53.8 °C in the data set with HeLa Kyoto [2] (cell cycle stage: G1/S) and 52.5 °C in the data set with HeLa Kyoto [2] (cell cycle stage: mitosis). Moreover, the “solubility change mitosis (log2)” value in the data set on HeLa Kyoto [3] was -0.141. The thermal stability score came to 1.75 in the data set on HeLa Kyoto [4] (setting [5]) and 1.86 with HeLa Kyoto [4] (cell cycle stage: mitosis).
For the sequence “MAAAPLKVCIVGSGNWGSAVAKIIGNNVKKLQKFASTVKMWVFEETVNGRKLTDIINNDHENVKYLPGHKLPENVVAMSNLSEAVQDADLLVFVIPHQFIHRICDEITGRVPKKALGITLIKGIDEGPEGLKLISDIIREKMGIDISVLMGANIANEVAAEKFCETTIGSKVMENGLLFKELLQTPNFRITVVDDADTVELCGALKNIVAVGAGFCDGLRCGDNTKAAVIRLGLMEMIAFARIFCKGQVSTATFLESCGVADLITTCYGGRNRRVAEAFARTGKTIEELEKEMLNGQKLQGPQTSAEVYRILKQKGLLDKFPLFTAVYQICYESRPVQEMLSCLQSHPEHT [GPD1L]”, the “solubility in G1/S (log2)” value in the data set on HeLa Kyoto [1] was found to be 0.144. Also, the melting temperature in the data set with HeLa Kyoto [2] (cell cycle stage: G1/S) worked out at 53.2 °C; in the data set with HeLa Kyoto [2] (cell cycle stage: mitosis), 53 °C. In addition, the “solubility change mitosis (log2)” value in the data set on HeLa Kyoto [3] was -0.126. The thermal stability score was 0.464 with HeLa Kyoto [4] (setting [5]) and -0.000421 in the data set on HeLa Kyoto [4] (cell cycle stage: mitosis).
For “MAAAPPLRDRLSFLHRLPILLKGTSDDDVPCPGYLFEEIAKISHESPGSSQCLLEYLLSRLHSSSGHGKLKVLKILLYLCSHGSSFFLLILKRNSAFIQEAAAFAGPPDPLHGNSLYQKVRAAAQDLGSTLFSDTVLPLAPSQPLGTPPATGMGSQARPHSTLQGFGYSKEHGRTAVRHQPGQAGGGWDELDSGPSSQNSSQNSDLSRVSDSGSHSGSDSHSGASREPGDLAERVEVVALSDCQQELSLVRTVTRGPRAFLSREEAQHFIKACGLLNCEAVLQLLTCHLRGTSECTQLRALCAIASLGSSDLLPQEHILLRTRPWLQELSMGSPGPVTNKATKILRHFEASCGQLSPARGTSAEPGPTAALPGPSDLLTDAVPLPGSQVFLQPLSSTPVSSRSPAPSSGMPSSPVPTPPPDASPIPAPGDPSEAEARLAESRRWRPERIPGGTDSPKRGPSSCAWSRDSLFAGMELVACPRLVGAGAAAGESCPDAPRAPQTSSQRTAAKEPPGSEPSAFAFLNA [ENTHD2]”, in the data set with HeLa Kyoto [1], the “solubility in G1/S (log2)” value was determined as 0.305. Further, the figures for the melting temperature with HeLa Kyoto [2] (cell cycle stage: G1/S) and in the data set on HeLa Kyoto [2] (cell cycle stage: mitosis) were 53.4 °C and 50.6 °C, respectively. Moreover, the “solubility change mitosis (log2)” value in the data set on HeLa Kyoto [3] was found to be 0.0532. Moreover, the figures for the thermal stability score with HeLa Kyoto [4] (setting [5]) and with HeLa Kyoto [4] (cell cycle stage: mitosis) were -0.323 and -0.0735, respectively.
As to “MAAARATTPADGEEPAPEAEALAAARERSSRFLSGLELVKQGAEARVFRGRFQGRAAVIKHRFPKGYRHPALEARLGRRRTVQEARALLRCRRAGISAPVVFFVDYASNCLYMEEIEGSVTVRDYIQSTMETEKTPQGLSNLAKTIGQVLARMHDEDLIHGDLTTSNMLLKPPLEQLNIVLIDFGLSFISALPEDKGVDLYVLEKAFLSTHPNTETVFEAFLKSYSTSSKKARPVLKKLDEVRLRGRKRSMVG [TP53RK]”, in the data set with HeLa Kyoto [1], the “solubility in G1/S (log2)” value is 0.367. Moreover, the melting temperature in the data set with HeLa Kyoto [2] (cell cycle stage: G1/S) is 55.1 °C; in the data set with HeLa Kyoto [2] (cell cycle stage: mitosis), 53 °C. Besides, the “solubility change mitosis (log2)” value in the data set on HeLa Kyoto [3] is -0.151. For the same sequence, the thermal stability score with HeLa Kyoto [4] (setting [5]) was 0.0261; in the data set on HeLa Kyoto [4] (cell cycle stage: mitosis), -0.818.
In the case of “MAAASAVSVLLVAAERNRWHRLPSLLLPPRTWVWRQRTMKYTTATGRNITKVLIANRGEIACRVMRTAKKLGVQTVAVYSEADRNSMHVDMADEAYSIGPAPSQQSYLSMEKIIQVAKTSAAQAIHPGCGFLSENMEFAELCKQEGIIFIGPPPSAIRDMGIKSTSKSIMAAAGVPVVEGYHGEDQSDQCLKEHARRIGYPVMIKAVRGGGGKGMRIVRSEQEFQEQLESARREAKKSFNDDAMLIEKFVDTPRHVEVQVFGDHHGNAVYLFERDCSVQRRHQKIIEEAPAPGIKSEVRKKLGEAAVRAAKAVNYVGAGTVEFIMDSKHNFCFMEMNTRLQVEHPVTEMITGTDLVEWQLRIAAGEKIPLSQEEITLQGHAFEARIYAEDPSNNFMPVAGPLVHLSTPRADPSTRIETGVRQGDEVSVHYDPMIAKLVVWAADRQAALTKLRYSLRQYNIVGLHTNIDFLLNLSGHPEFEAGNVHTDFIPQHHKQLLLSRKAAAKESLCQAALGLILKEKAMTDTFTLQAHDQFSPFSSSSGRRLNISYTRNMTLKDGKNNVAIAVTYNHDGSYSMQIEDKTFQVLGNLYSEGDCTYLKCSVNGVASKAKLIILENTIYLFSKEGSIEIDIPVPKYLSSVSSQETQGGPLAPMTGTIEKVFVKAGDKVKAGDSLMVMIAMKMEHTIKSPKDGTVKKVFYREGAQANRHTPLVEFEEEESDKRESE [MCCC1]”, the “solubility in G1/S (log2)” value in the data set with HeLa Kyoto [1] was -0.0598. Moreover, the melting temperature amounted to 51.4 °C with HeLa Kyoto [2] (cell cycle stage: G1/S) and 51.3 °C in the data set with HeLa Kyoto [2] (cell cycle stage: mitosis). For the same sequence, in the data set with HeLa Kyoto [3], the “solubility change mitosis (log2)” value was -0.125. Besides, the thermal stability score in the data set with HeLa Kyoto [4] (setting [5]) was -0.414; with HeLa Kyoto [4] (cell cycle stage: mitosis) it was -0.17.
As to “MAAASGSVLQRCIVSPAGRHSASLIFLHGSGDSGQGLRMWIKQVLNQDLTFQHIKIIYPTAPPRSYTPMKGGISNVWFDRFKITNDCPEHLESIDVMCQVLTDLIDEEVKSGIKKNRILIGGFSMGGCMAIHLAYRNHQDVAGVFALSSFLNKASAVYQALQKSNGVLPELFQCHGTADELVLHSWAEETNSMLKSLGVTTKFHSFPNVYHELSKTELDILKLWILTKLPGEMEKQK [LYPLAL1]”, in the data set on HeLa Kyoto [1], the “solubility in G1/S (log2)” value worked out at 0.361. Further, the melting temperature with HeLa Kyoto [2] (cell cycle stage: G1/S) amounted to 52 °C; in the data set with HeLa Kyoto [2] (cell cycle stage: mitosis), 52.3 °C. Moreover, in the data set with HeLa Kyoto [3], the “solubility change mitosis (log2)” value is -0.0182. Besides, the thermal stability score with HeLa Kyoto [4] (setting [5]) came to 1.32; with HeLa Kyoto [4] (cell cycle stage: mitosis), 0.974.
Take “MAAASPLRDCQAWKDARLPLSTTSNEACKLFDATLTQYVKWTNDKSLGGIEGCLSKLKAADPTFVMGHAMATGLVLIGTGSSVKLDKELDLAVKTMVEISRTQPLTRREQLHVSAVETFANGNFPKACELWEQILQDHPTDMLALKFSHDAYFYLGYQEQMRDSVARIYPFWTPDIPLSSYVKGIYSFGLMETNFYDQAEKLAKEALSINPTDAWSVHTVAHIHEMKAEIKDGLEFMQHSETFWKDSDMLACHNYWHWALYLIEKGEYEAALTIYDTHILPSLQANDAMLDVVDSCSMLYRLQMEGVSVGQRWQDVLPVARKHSRDHILLFNDAHFLMASLGAHDPQTTQELLTTLRDASESPGENCQHLLARDVGLPLCQALVEAEDGNPDRVLELLLPIRYRIVQLGGSNAQRDVFNQLLIHAALNCTSSVHKNVARSLLMERDALKPNSPLTERLIRKAATVHLMQ [TTC38]”: the “solubility in G1/S (log2)” value with HeLa Kyoto [1] was 0.319. The melting temperature in the data set on HeLa Kyoto [2] (cell cycle stage: G1/S) and in the data set on HeLa Kyoto [2] (cell cycle stage: mitosis) was 53.1 °C in each case. Moreover, the “solubility change mitosis (log2)” value in the data set on HeLa Kyoto [3] was -0.0718. The thermal stability score in the data set with HeLa Kyoto [4] (setting [5]) is -0.435; in the data set with HeLa Kyoto [4] (cell cycle stage: mitosis), -0.408.
Regarding “MAADISESSGADCKGDPRNSAKLDADYPLRVLYCGVCSLPTEYCEYMPDVAKCRQWLEKNFPNEFAKLTVENSPKQEAGISEGQGTAGEEEEKKKQKRGGRGQIKQKKKTVPQKVTIAKIPRAKKKYVTRVCGLATFEIDLKEAQRFFAQKFSCGASVTGEDEIIIQGDFTDDIIDVIQEKWPEVDDDSIEDLGEVKK [DENR]”, the “solubility in G1/S (log2)” value with HeLa Kyoto [1] worked out at 0.481. Besides, the results for the melting temperature in the data set with HeLa Kyoto [2] (cell cycle stage: G1/S) and in the data set on HeLa Kyoto [2] (cell cycle stage: mitosis) were 56.9 °C and 58.6 °C, respectively. For the same sequence, in the data set on HeLa Kyoto [3], the “solubility change mitosis (log2)” value stood at 0.142. In addition, the thermal stability score in the data set with HeLa Kyoto [4] (setting [5]) is 0.263; with HeLa Kyoto [4] (cell cycle stage: mitosis) it was 0.467.
As to “MAAEAADLGLGAAVPVELRRERRMVCVEYPGVVRDVAKMLPTLGGEEGVSRIYADPTKRLELYFRPKDPYCHPVCANRFSTSSLLLRIRKRTRRQKGVLGTEAHSEVTFDMEILGIISTIYKFQGMSDFQYLAVHTEAGGKHTSMYDKVLMLRPEKEAFFHQELPLYIPPPIFSRLDAPVDYFYRPETQHREGYNNPPISGENLIGLSRARRPHNAIFVNFEDEEVPKQPLEAAAQTWRRVCTNPVDRKVEEELRKLFDIRPIWSRNAVKANISVHPDKLKVLLPFIAYYMITGPWRSLWIRFGYDPRKNPDAKIYQVLDFRIRCGMKHGYAPSDLPVKAKRSTYNYSLPITVKKTSSQLVTMHDLKQGLGPSGTSGARKPASSKYKLKDSVYIFREGALPPYRQMFYQLCDLNVEELQKIIHRNDGAENSCTERDGWCLPKTSDELRDTMSLMIRQTIRSKRPALFSSSAKADGGKEQLTYESGEDEEDEEEEEEEEEDFKPSDGSENEMETEILDYV [GTF3C5]”, in the data set with HeLa Kyoto [1], the “solubility in G1/S (log2)” value was -0.0747. Besides, the melting temperature with HeLa Kyoto [2] (cell cycle stage: G1/S) turned out to be 47.8 °C; with HeLa Kyoto [2] (cell cycle stage: mitosis) it was 49.4 °C. For the same sequence, the “solubility change mitosis (log2)” value in the data set with HeLa Kyoto [3] was -0.0211. The thermal stability score in the data set with HeLa Kyoto [4] (setting [5]) was found to be 2.34; in the data set on HeLa Kyoto [4] (cell cycle stage: mitosis), 4.79.
Take “MAAEGWIWRWGWGRRCLGRPGLLGPGPGPTTPLFLLLLLGSVTADITDGNSEHLKREHSLIKPYQGVGSSSMPLWDFQGSTMLTSQYVRLTPDERSKEGSIWNHQPCFLKDWEMHVHFKVHGTGKKNLHGDGIALWYTRDRLVPGPVFGSKDNFHGLAIFLDTYPNDETTERVFPYISVMVNNGSLSYDHSKDGRWTELAGCTADFRNRDHDTFLAVRYSRGRLTVMTDLEDKNEWKNCIDITGVRLPTGYYFGASAGTGDLSDNHDIISMKLFQLMVEHTPDEESIDWTKIEPSVNFLKSPKDNVDDPTGNFRSGPLTGWRVFLLLLCALLGIVVCAVVGAVVFQKRQERNKRFY [LMAN2]”: in the data set on HeLa Kyoto [1], the “solubility in G1/S (log2)” value is 0.163. In addition, the melting temperature in the data set with HeLa Kyoto [2] (cell cycle stage: G1/S) was determined as 54.1 °C; with HeLa Kyoto [2] (cell cycle stage: mitosis), 53.8 °C. In the data set on HeLa Kyoto [3], the “solubility change mitosis (log2)” value is -0.0609. The values for the thermal stability score in the data set with HeLa Kyoto [4] (setting [5]) and with HeLa Kyoto [4] (cell cycle stage: mitosis) were 2.85 and 5.52, respectively.
